Columns and labels:
GST-UAP56 (human) = GST-UAP56 (human) (UniProt Q13838); test: SPR; UAP56 with API5, FGF2, the API5–FGF2 complex or PBK as analyte proteins; purified recombinant proteins
[1] = target: His-FGF2, LMW FGF2 (residues 135-288, C211S/C229S) (UniProt P09038); test: SPR; conditions: concentration series 0.031, 0.063, 0.13, 0.25, 0.50, 1.0, 2.0, 4.0, 8.0, 16 µM
[2] = target: His-API5 (apoptosis inhibitor 5, residues 1-504, isoform 2), wild type (human); test: SPR; purified recombinant His-API5 and His-FGF2; who was immobilised is not given in the source
[3] = target: His-API5 3Mut (E184A/D185A/E190A) (human); test: as above
[4] = target: His-API5 (apoptosis inhibitor 5, residues 1-504, isoform 2), wild type; test: SPR; conditions: concentration series 0.13, 0.25, 0.50, 1.0, 2.0, 4.0, 8.0, 16 µM

Chain of GST-UAP56 (human) (Q13838 whole entry, the tested form may be a part): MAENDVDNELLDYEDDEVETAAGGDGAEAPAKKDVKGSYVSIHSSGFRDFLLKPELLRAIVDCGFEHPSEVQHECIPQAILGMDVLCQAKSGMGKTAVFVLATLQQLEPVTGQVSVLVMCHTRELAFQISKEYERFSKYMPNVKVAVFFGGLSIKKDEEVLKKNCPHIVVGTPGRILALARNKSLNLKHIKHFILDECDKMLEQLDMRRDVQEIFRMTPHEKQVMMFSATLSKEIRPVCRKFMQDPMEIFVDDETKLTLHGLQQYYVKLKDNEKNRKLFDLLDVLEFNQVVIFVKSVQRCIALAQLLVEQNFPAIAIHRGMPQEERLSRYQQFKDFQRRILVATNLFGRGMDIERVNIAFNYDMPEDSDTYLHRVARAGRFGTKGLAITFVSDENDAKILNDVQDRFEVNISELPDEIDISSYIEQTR
Chain of His-FGF2, LMW FGF2 (residues 135-288, C211S/C229S) (P09038 135-288 C211S/C229S): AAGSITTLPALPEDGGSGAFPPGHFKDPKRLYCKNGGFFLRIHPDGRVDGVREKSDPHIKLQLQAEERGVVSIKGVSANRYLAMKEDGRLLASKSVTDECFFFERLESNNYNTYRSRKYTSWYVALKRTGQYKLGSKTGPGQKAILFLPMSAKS

With “API5–FGF2 complex (His-API5 with His-LMW FGF2) (from UniProt P09038 135-288)” the Kd (GST-UAP56 (human)) was 199 nM.

“His-API5 (apoptosis inhibitor 5, residues 1-504, isoform 2), wild type (natural protein)” showed a Kd (GST-UAP56 (human)) of 1370 nM.

Work on “His-API5 (apoptosis inhibitor 5, residues 1-504, isoform 2), wild type E184A; D185A; E190A” yielded a kon [1] of 2260 M⁻¹ s⁻¹.

“His-FGF2 Mut (C211S/C229S/R262A/T263A/K271A) (from UniProt P09038 135-288) (natural protein)” showed a Kd [2] of 1510 nM and a Kd [3] of 17300 nM.

“His-FGF2, LMW FGF2 (residues 135-288, C211S/C229S) (from UniProt P09038 135-288) (natural protein)” showed a Kd [2] of 676 nM and a Kd [3] of 4200 nM.

For “His-FGF2, LMW FGF2 (residues 135-288, C211S/C229S) (from UniProt P09038) R262A; T263A; K271A”, the kon [4] was 1660 M⁻¹ s⁻¹.
